Results as given in the supplement of paper PMC7877785.
± gives the uncertainty stated by the source.

Experiment: self-splicing fitness, log relative to wild type (ln ratio); higher = more splicing; Tetrahymena group I intron in knt gene, E. coli kanamycin selection, DiMSum; sequences stand for … in CUCUCU…GGAGGGAAAAGUUAUCAGGCAUGCACCUGGUAGCUAGUCUUUAAACCAAUAGAUUGCAUCGGUUUAAAAGGCAAGACCGUCAAAUUGCGGGAAAGGGGUCAACAGCCGUUCAGUACCAAGUCUCAGGGGAAACUUUGAGAUGGCCUUGCAAAGGGUAUGGUAAUAAGCUGACGGACAUGGUCCUAACCACGCAGCCAAGUCCUAAGUCAACAGAUCUUCUGUUGAUAUGGAUGCAGUUCACAGACUAAAUGUCGGUCGGGGAAGAUGUAUUCUUCUCAUAAGAUAUAGUCGGACCUCUCCUUAAUGGGAGCUAGCGGAUGAAGUGAUGCAACACUGGAGCCGCUGGGAACUAAUUUGUAUGCGAAAGUAUAUUGAUUAGUUUUGGAGUACUCGUGGUCG
Procedure, shortened: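 DiMSum derived fitness as the error-weighted combination of fold changes across replicates, kanamycin versus no kanamycin, normalised to wild type. E. coli BL21(DE3) held the library, which randomised all eight P1ex-region intron nucleotides within the knt kanamycin-resistance gene on pET-22b(+). Six replicate transformations grew overnight at 37°C or 30°C on LB agar with or without 25 μg/mL kanamycin, also containing 100 μg/mL carbenicillin, 50 μM IPTG and 0.2% rhamnose, and pooled colonies were amplicon-sequenced on an Illumina HiSeq 2500.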

Row | Sequence | self-splicing fitness (ln) (30 °C) | self-splicing fitness (ln) (37 °C)
1 | CUGCAGCAAUAUUACGACAG | -2.43 ± 0.13 | -1.56 ± 0.18
2 | CUGCAGCAAUAUUACGACGA | -1.85 ± 0.18 | -1.16 ± 0.17
3 | CUGCAGCAAUAUUACGACUG | -2.56 ± 0.16 | -1.74 ± 0.2
4 | CUGCAGCAAUAUUACGAGGU | -3.65 ± 0.14 | -3.53 ± 0.2
5 | CUGCAGCAAUAUUACGAGUA | -2.85 ± 0.23 | -2.97 ± 0.28
6 | CUGCAGCAAUAUUACGAUAA | -3.39 ± 0.28 | -3.1 ± 0.28
7 | CUGCAGCAAUAUUACGCAGU | -1.6 ± 0.14 | -3.15 ± 0.35
8 | CUGCAGCAAUAUUACGCCUG | -2.21 ± 0.28 | -1.14 ± 0.28
9 | CUGCAGCAAUAUUACGCGAU | -1.12 ± 0.09 | -0.167 ± 0.12
10 | CUGCAGCAAUAUUACGCGUA | -1.22 ± 0.23 | -1.53 ± 0.22
11 | CUGCAGCAAUAUUACGGAAC | -3.88 ± 0.27 | -1.81 ± 0.27
12 | CUGCAGCAAUAUUACGGCAA | -0.665 ± 0.094 | 0.202 ± 0.088
13 | CUGCAGCAAUAUUACGGUAC | -4.59 ± 0.24 | -1.81 ± 0.21
14 | CUGCAGCAAUAUUACGGUCG | -0.487 ± 0.077 | 0.0459 ± 0.09
15 | CUGCAGCAAUAUUACGUAUU | -4.27 ± 0.18 | -3.51 ± 0.19
16 | CUGCAGCAAUAUUACGUCUC | – | -2.12 ± 0.26
17 | CUGCAGCAAUAUUACGUGAG | -0.703 ± 0.067 | 0.216 ± 0.093
18 | CUGGAGCAAUAUUACGAGAG | -3.54 ± 0.36 | -3.53 ± 0.33
19 | CUGGAGCAAUAUUACGAGUG | -1.26 ± 0.087 | -0.568 ± 0.12
20 | CUGGAGCAAUAUUACGAUGA | -3.18 ± 0.4 | -1.87 ± 0.24
21 | CUGGAGCAAUAUUACGCGGC | -1.27 ± 0.14 | 0.0532 ± 0.14
22 | CUGGAGCAAUAUUACGCUCG | -1.13 ± 0.18 | –
23 | CUGGAGCAAUAUUACGCUUA | -2.59 ± 0.45 | -2.32 ± 0.35
24 | CUGGAGCAAUAUUACGGAAG | -3.48 ± 0.41 | -1.45 ± 0.28
25 | CUGGAGCAAUAUUACGUACA | – | -1.28 ± 0.48
26 | CUGGAGCAAUAUUACGUAGC | – | -2.38 ± 0.32

Row | Sequence | self-splicing fitness (ln) (30 °C) | self-splicing fitness (ln) (37 °C)
27 | CUGGAGCAAUAUUACGUCAG | -4.05 ± 0.46 | -2.59 ± 0.29
28 | CUGGAGCAAUAUUACGUCCG | -2.17 ± 0.16 | -0.559 ± 0.15
29 | CUGGAGCAAUAUUACGUCGU | -3.88 ± 0.23 | -2.39 ± 0.22
30 | CUGGAGCAAUAUUACGUCUU | -3.27 ± 0.39 | –
31 | CUGGAGCAAUAUUACGUGCG | -1.44 ± 0.092 | -1.19 ± 0.12
32 | CUGGAGCAAUAUUACGUGGC | -2.22 ± 0.21 | -2.13 ± 0.25
33 | CUGGAGCAAUAUUACGUUUG | -2.66 ± 0.17 | -1.21 ± 0.17
34 | CUGUAGCAAUAUUACGAACC | -2.02 ± 0.47 | –
35 | CUGUAGCAAUAUUACGAAUC | -3.03 ± 0.35 | –
36 | CUGUAGCAAUAUUACGACAC | – | -2.65 ± 0.44
37 | CUGUAGCAAUAUUACGAGAU | -3.86 ± 0.16 | -2.21 ± 0.15
38 | CUGUAGCAAUAUUACGAGCG | -0.681 ± 0.094 | 0.0625 ± 0.12
39 | CUGUAGCAAUAUUACGAUCA | -2.29 ± 0.25 | -1.96 ± 0.42
40 | CUGUAGCAAUAUUACGAUGA | -1.86 ± 0.16 | -1.83 ± 0.16
41 | CUGUAGCAAUAUUACGCAAG | -2.47 ± 0.12 | -1.56 ± 0.11
42 | CUGUAGCAAUAUUACGCGAU | -4.41 ± 0.32 | -2.87 ± 0.28
43 | CUGUAGCAAUAUUACGGACU | -3.43 ± 0.3 | -1.83 ± 0.24
44 | CUGUAGCAAUAUUACGGCAA | -3.11 ± 0.39 | –
45 | CUGUAGCAAUAUUACGGCCG | -0.368 ± 0.13 | 0.257 ± 0.16
46 | CUGUAGCAAUAUUACGGGCG | -1.86 ± 0.09 | -0.334 ± 0.11
47 | CUGUAGCAAUAUUACGGGCU | -4.31 ± 0.3 | -3.2 ± 0.29
48 | CUGUAGCAAUAUUACGGGGU | -2.96 ± 0.34 | -2.82 ± 0.36
49 | CUGUAGCAAUAUUACGGGUC | -4.47 ± 0.34 | -2.65 ± 0.26
50 | CUGUAGCAAUAUUACGGUGC | -3.58 ± 0.2 | -2.77 ± 0.19
51 | CUGUAGCAAUAUUACGUCUU | -4.7 ± 0.26 | -2.67 ± 0.3
52 | CUGUAGCAAUAUUACGUGCU | -2.94 ± 0.24 | -2.39 ± 0.33

Row | Sequence | self-splicing fitness (ln) (30 °C) | self-splicing fitness (ln) (37 °C)
53 | CUGUAGCAAUAUUACGUUGU | -3.59 ± 0.25 | -4.02 ± 0.33
54 | CUUAAGCAAUAUUACGAAGA | -2.98 ± 0.24 | -1.45 ± 0.26
55 | CUUAAGCAAUAUUACGAAGU | -2.9 ± 0.13 | -2.19 ± 0.18
56 | CUUAAGCAAUAUUACGACGC | -3.04 ± 0.28 | -2.22 ± 0.4
57 | CUUAAGCAAUAUUACGACUU | -4.36 ± 0.32 | -1.74 ± 0.21
58 | CUUAAGCAAUAUUACGAGUG | -1.39 ± 0.068 | -0.428 ± 0.1
59 | CUUAAGCAAUAUUACGAUGA | -3.04 ± 0.43 | -0.126 ± 0.22
60 | CUUAAGCAAUAUUACGAUUU | -4.53 ± 0.42 | -2.7 ± 0.24
61 | CUUAAGCAAUAUUACGCACA | -2.43 ± 0.35 | -1.87 ± 0.4
62 | CUUAAGCAAUAUUACGCACG | -1.62 ± 0.14 | -0.394 ± 0.16
63 | CUUAAGCAAUAUUACGCACU | -2.93 ± 0.17 | -1.53 ± 0.17
64 | CUUAAGCAAUAUUACGCCAG | -2.49 ± 0.22 | -2.06 ± 0.33
65 | CUUAAGCAAUAUUACGCCAU | -1.9 ± 0.33 | -2.35 ± 0.29
66 | CUUAAGCAAUAUUACGCUAG | -3.35 ± 0.25 | -0.439 ± 0.19
67 | CUUAAGCAAUAUUACGCUGU | -4.48 ± 0.34 | -2.3 ± 0.23
68 | CUUAAGCAAUAUUACGCUUC | -3.15 ± 0.4 | –
69 | CUUAAGCAAUAUUACGGACG | -0.229 ± 0.085 | 0.228 ± 0.12
70 | CUUAAGCAAUAUUACGGAGA | -2.45 ± 0.24 | -2.31 ± 0.29
71 | CUUAAGCAAUAUUACGGCCG | -0.607 ± 0.093 | -0.38 ± 0.13
72 | CUUAAGCAAUAUUACGGCCU | -2.74 ± 0.25 | -3.1 ± 0.44
73 | CUUAAGCAAUAUUACGGCGA | -4.04 ± 0.46 | -1.81 ± 0.34
74 | CUUAAGCAAUAUUACGGGGU | -3.09 ± 0.15 | -3.33 ± 0.29
75 | CUUAAGCAAUAUUACGGUAG | -1.58 ± 0.12 | -0.559 ± 0.12
76 | CUUAAGCAAUAUUACGGUCU | -4.28 ± 0.26 | -2.64 ± 0.29
77 | CUUAAGCAAUAUUACGGUUU | -4.49 ± 0.3 | -2.88 ± 0.4
78 | CUUAAGCAAUAUUACGUAAU | -2.96 ± 0.13 | -1.56 ± 0.12
